Test system: MS2 coat protein
Assay: apparent KD of MS2 coat protein; higher = weaker reporter binding
Conditions: Eterna round: R107
Method: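 RNA-MaP round R107: designed RNA switches with theophylline, tryptophan, arginine or FMN aptamers are transcribed on-chip within common flanks. They are titrated with SNAP-549-labelled MS2 coat protein in RNA-MaP buffer (100 mM Tris pH 7.5, 80 mM KCl, 4 mM MgCl2), without ligand or with the indicated ligand. Median apparent KD per design.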

[1] = input ligand: theophylline 20 uM
[2] = input ligand: theophylline 2 mM
[3] = input ligand: tryptophan 2.4 mM

Row | Sequence | apparent KD of MS2 coat protein (input ligand: arginine 13.2 mM) | apparent KD of MS2 coat protein (input ligand: none) | apparent KD of MS2 coat protein [1] | apparent KD of MS2 coat protein [2] | apparent KD of MS2 coat protein [3]
1 | ACACGAAGCUGAAGGAGCGUGGUAUAAUUUUUUACAUGAGGAUCACCCAUGUCUCAUUUUUCACAGGUAGGUCGCAGAUGCGUGA [JR_SSArginiB_Sub015] | 54.5 nM | 71.5 nM | 81.6 nM | 117 nM | 78.7 nM
2 | ACAUGAGGAUCACCCAUGUAAGAUGCAGAAGGAGCGGGAAAUAACCCAGGUAGGUCGCUGCGGUUUGGAUUAUUGUGUUCGUGAA [#08 Exclusion - Arginine A] | 11.6 nM | 12.1 nM | 18.8 nM | 13.8 nM | 12.5 nM
3 | ACAUGAGGAUCACCCAUGUACAUCACCCGACGAGGACCGGUACGGCCGCCACUCGGGUAUAUAUUUACAUCGGGUGAUUUUACGU [#23 Tryptophan A Same State] | 21.9 nM |  | 81.2 nM | 115 nM | 
4 | ACAUGAGGAUCACCCAUGUACAUGAGGGAAGGAGCGGUACAUGAGCCAGGUAGGUCGCCCAACAGCAAAUGGCAUGUACAACGGA [hhnmullin] | 33.8 nM | 78.4 nM | 74.3 nM | 60.5 nM | 63.5 nM
5 | ACAUGAGGAUCACCCAUGUAGAAAGAUCCUCGAGGACCGGUACGGCCGCCACUCGAGUGGCAGUGUGUGCAGAAAAUGCGCGCGC | 28.6 nM | 50.9 nM | 92.2 nM | 81.4 nM | 14.2 nM
6 | ACAUGAGGAUCACCCAUGUCACGGCACGAUACCAGCUGAUGCGGUGGCCCUUGGCAGCGUGACGUUUGGUCCCGCGGAUGACACG [qsmullin] | 86.4 nM |  | 280 nM |  | 240 nM
7 | ACAUGAGGAUCACCCAUGUCUGCCACUGAUACCAGCGGAUGCCAACGCCCUUGGCAGCAGAACAUGAGGAUCACCCAUGUAGGCA [Same State Theophylline A GF25] | 99.5 nM |  | 303 nM |  | 297 nM
8 | ACAUGAGGAUCACCCAUGUGAUGGCACGAUACCAGCUGAUCCCGUGGCCCUUGGCAGCGUCCGGUGUGGUCCGGCGGGUGGGACG [qqwmullin] | 30.1 nM | 21.5 nM | 97.8 nM | 25.9 nM | 21.2 nM
9 | ACAUGAGGAUCACCCAUGUGCCGUCUUGAUACCAGACCCGAAGUAGUCCCUUGGCAGCAACUACGUGACGGUCGCCCAUGUGUAG [rremullin] | 14 nM |  | 20.4 nM |  | 14.7 nM
10 | ACAUGAGGAUCACCCAUGUGCCGUCUUGAUACCAGACCCGAAGUAGUCCCUUGGCAGCAACUACGUGAGGGUCGCCCAUGUGUAG [5kullin] | 16.1 nM | 14.5 nM | 22.2 nM | 16.7 nM | 13.7 nM
11 | ACAUGAGGAUCACCCAUGUGGCGUCUUGAUACCAGACCCGCACUAGUCCCUUGGCAGCAACUACGUGAGGGUCGCCCAUGUGUAG [zxdullin] | 32.4 nM |  | 50.8 nM |  | 34.4 nM
12 | ACAUGAGGAUCACCCAUGUUUGUUGUUCCUCGAGGACCGGUACGGCCGCCACUCGAACGAGUGGCGCGCGAGUGCGCACUCGCGC [aOa] | 12.7 nM | 11.9 nM | 18 nM | 13.4 nM | 11.7 nM
13 | ACAUUUAACUGAAGGAGCGUGAUAAACAUGAGGAUCACCCAUGUACCAAAGAUUUUCAGUUCACAGGUAGGUCGCAGACUAAUGA [JR_ExcArginiB_Sub016] | 10.6 nM | 11.1 nM | 13.8 nM | 11.5 nM | 10.8 nM
14 | ACGUAAUGCAGAAGGAGCGUCUGAUUUUAACAUGAGGAUCACCCAUGUAAUAUUUAUGGUAGACAGGUAGGUCGCUGAAGUACGA [JR_ExcArginiB_Sub002] | 14.8 nM |  | 16.8 nM | 15.2 nM | 14.8 nM
15 | ACGUAGAAGUCGGCCGCCACUGAUUUCAUGUUCAACAUGAGGAUCACCCAUGUACCUUAUGUUAACAGGACCGGGACGUAUACGA [JR_SSTryptoB_Sub001] | 228 nM |  | 303 nM | 442 nM | 
16 | ACGUCAACCCUUAUGUUGAUGCAAGACGAUACCAGCCUGGAUACAGGCCCUUGGCAGCGUCAACAUGAGGAUCACCCAUGUAAUA [(T)''-(MT)'-(Theo)-(Ms2)] | 32.2 nM |  | 261 nM |  | 45.3 nM
17 | ACGUUCGCGGUAUCCAACCGGUUGUACAAACGAGGACCGGUACGGCCGCCACUCGUGAUUGUACAUGAGGAUCACCCAUGUGGCA [theeternabot_exclusion_MS2_Trp_A_28] | 18.7 nM |  | 34.1 nM | 28.1 nM | 
18 | ACUAGUUGUGCAGAUACCAGAUAUGAGGAUCACCCAUAUUUGGGAUGUUCGCAUCUUCCUGUCCCUUGGCAGCUGUACAUCUAGA [Omei Theo B Exc v7] | 37.9 nM | 37.3 nM | 86.7 nM | 107 nM | 33.9 nM
19 | ACUUGAUACUGAAGGAGCGUCGGAUAAACUCGCACAUGAGGAUCACCCAUGUAUAUGAAUCGGCAGGUAGGUCGCAGUAUCGAGU [#21 Same State - Arginine B] | 14.8 nM | 15.6 nM | 20.4 nM | 17.1 nM | 15.4 nM
20 | AGAAAGAAACAAAACUCAAGGAGAACCGAAGGAGCGGCGAAAGAGCCAGGUAGGUCGCGGUCCUCAACAUGAGGAUCACCCAUGU | 61.6 nM | 104 nM | 83.5 nM | 186 nM | 96.6 nM
21 | AGAACAAAACUAAAUAAACAACUGGGUGAUACCAGCACAUGUGCGUGCCCUUGGCAGCAUCCGGCCACAUGAGGAUCACCCAUGU [Inarar] | 42.6 nM |  | 95.6 nM |  | 62.7 nM
22 | AGACAUGAGGAUCACCCAUGUAGCAUGGAUACCAGAUGCAGAUUUAUCCCUUGGCAGCUGUGGUAAAGUGAUGCAUUGCUCCUAG [Exclusion - Theophylline A (Freestyle 6)] | 18.8 nM | 22.6 nM | 31 nM | 27.1 nM | 23.8 nM
23 | AGACAUGAGGAUCACCCAUGUAGUAUGGAUACCAGAUCCAGAUUUAUCCCUUGGCAGCUGUGGUACAGCGAUGGAUUGCUCCUAG [Exclusion - Theophylline A (Freestyle 10)] | 33.5 nM |  | 48.5 nM |  | 39.2 nM
24 | AGACGAGCAAUCAACGGGCGUUUCGUGACGCGAGGACCGGUACGGCCGCCACUCGAGUCUGGACAUGAGGAUCACCCAUGUUAUG [theeternabot_exclusion_MS2_Trp_A_46] | 32.8 nM | 22 nM | 23 nM | 41 nM | 22.2 nM
25 | AGACUUCGCAUAGGAAAACUAUGUGAAGUCCGAGGACCGGUACGGCCGCCACUCGUCCUCACAUGAGGAUCACCCAUGUAAAUAA [#OpenEnded 2 #CuTurnoff #Tail] | 22.7 nM |  |  | 24.5 nM | 
26 | AGAGCAUUGACGGCCGCCACUCAUGUCACAUGAGGAUCACCCAUGUGAUGGGUGAUAGCCCGGUCGAGGACCGGGUCAAUGCUCA [Omei Tryp SS B v5] | 14.3 nM |  | 29.7 nM | 20.6 nM | 
27 | AGAGUCUAGUCGGCCGCCACUCAUGUCCGAAGGACAUGAGGAUCACCCAUGUACCAAUGGUACAUGAGGACCGGGACUGGACUCA [Omei Tryp B SS C v3] | 34.5 nM | 39.9 nM | 98.3 nM | 559 nM | 7.34 nM
28 | AGCACUGUGACGGCCGCCACUAUAUUAGGGUGGUAAGGUUCAUAAAUACAUGAGGAUCACCCAUGUAGGACCGGGUCUCAGUGCA [Omei Trp Exc B A v2] | 11.8 nM | 12.6 nM | 11 nM | 13.5 nM | 17.1 nM
29 | AGCCCGGGAGCGGCCGCCACUGGAGGCUGAGCGCGACAUGAGGAUCACCCAUGUGUGCCCGGCGUUAGGACCGGGCUCGCGUGGU [#1 Same State - Tryptophan B Attempt #23 (HarryS)] | 28.4 nM | 29.4 nM | 75 nM | 79.2 nM | 32.2 nM
30 | AGCGACAUGCGUGAUACCAGCUACAUGAGGAUCACCCAUGUGAGUAGGAAACUACUGUGUAGCCCUUGGCAGCACAGUGCAUGUC [Exclusion - Theophylline B (Freestyle 25)] | 11.4 nM |  | 15.9 nM |  | 10.3 nM

Source: the supplement of paper PMC9170038
